We go through 24 molecules from patent US20170298109A1 (SAPPORO MEDICAL UNIVERSITY, published 2017).

For test [1], the target named is T1, HLA-A*11:01 with β2-microglobulin (human).
T1 construct: Soluble recombinant HLA used in the folding test and in tetramer reagents
The experiment in a line: folding test: HLA-monomer formation after 1, 3 and 7 days, gel filtration. (In general: In gel filtration, larger molecules generally elute earlier.)

For test [2], the target named is T2, HLA-A*02:01 with β2-microglobulin (human).
T2 construct: Soluble recombinant HLA used in the folding test and in tetramer reagents; also called HLA-A2
The experiment in a line: folding test: HLA-monomer formation from HLA, β2-microglobulin and peptide, gel filtration.

For test [3], the target named is HLA-A*24:02 with β2-microglobulin (human). Description: HLA tetramer reagent made of the RMM peptide and the HLA type, staining of induced CTLs, flow cytometry. For orientation: In flow cytometry, cells or beads pass a laser one at a time.
Test [4] addresses T2, HLA-A*02:01 with β2-microglobulin. The description is as above.
The target is the same in test [5]. The experiment in a line: folding test: HLA-monomer formation, gel filtration.

In the case of GLIPTVLTLK (synthetic 10-mer) [GLI peptide], the binding result in test [1] is listed as “binds”.
Take MAATEISVL (synthetic 9-mer) [MAA peptide]: the binding result in test [2] is listed as “no binding (tested: 30 µM peptide)”.
Consider RMMLVSAWL (synthetic 9-mer) [RMM peptide], for which the binding result in test [3] and in test [4] was “binds” throughout.
On to GTMKIHILQK (synthetic 10-mer) [GTM peptide], for which the binding result in test [1] is listed as “binds”.
For the molecule YASRDTYKL (synthetic 9-mer) [YAS peptide], in test [5], the binding result is “binds”.
Turning to AAAEEASTTK (synthetic 10-mer) [AAA peptide], the binding result in test [1] was “binds”.
Take ALEENVMVA (synthetic 9-mer) [ALE peptide]: the binding result in test [5] is given as “binds”.
Take KLLFIGTIK (synthetic 9-mer) [KLLF peptide]: in test [1], the binding result is recorded as “binds”.
As for RMSSFNRHMK (synthetic 10-mer) [RMS peptide], in test [1], the binding result is listed as “binds”.
As for CSYASRDTYK (synthetic 10-mer) [CSY peptide], the binding result in test [1] is listed as “binds”.
Take KLAVSLAET (synthetic 9-mer) [KLA peptide]: the binding result in test [5] is “binds”.
Take KQLLNAHFRK (synthetic 10-mer) [KQL peptide]: in test [1], the binding result was “binds”.
Turning to VLTVSNSNV (synthetic 9-mer) [VLT peptide], the binding result in test [5] is on record as “binds”.
As to NTHTGTRPYK (synthetic 10-mer) [NTH peptide], in test [1], the binding result is reported as “binds”.
On to ASGKGRRTRK (synthetic 10-mer) [ASG peptide], for which the binding result in test [1] is “binds”.
Turning to TVYKCSKCGK (synthetic 10-mer) [TVY peptide], in test [1], the binding result is on record as “binds”.
Regarding SLAETAGLI (synthetic 9-mer) [SLAE peptide], in test [5], the binding result is reported as “binds”.
For SVLSEQFTK (synthetic 9-mer) [SVL peptide], in test [1], the binding result is given as “binds”.
As to HALEENVMV (synthetic 9-mer) [HAL peptide], the binding result in test [5] is on record as “binds”.
For the molecule ILQKHGENV (synthetic 9-mer) [ILQ peptide], the binding result in test [5] was “binds”.
In the case of VLSEQFTKI (synthetic 9-mer) [VLS peptide], the binding result in test [5] is recorded as “binds”.
SVLEEEVEL (synthetic 9-mer) [SVLE peptide]: in test [5], the binding result is “binds”.
Regarding VLEEEVELV (synthetic 9-mer) [VLE peptide], the binding result in test [5] was “binds”.
As for TVLTLKASFK (synthetic 10-mer) [TVL peptide], in test [1], the binding result was “binds”.
